We go through 3 molecules from patent US20200347144A1 (SHANGHAI HYAMAB BIOTECH, published 2020).

The term EC50 (read off the curve) denotes the concentration giving half of the maximal effect.

Assay [1] concerns the target T1, monkey 4-1BB-his protein (monkey).
T1 construct: extracellular domain; Bought protein; also called extracellular domain of monkey-derived 4-1BB protein
Description: ELISA, coated monkey 4-1BB-his; Ab 0.08 ug/ml. Here is the method:
(§1) The purified immunogen A (4-1BB-hFc), monkey 4-1BB-his, and mouse 4-1BB-his obtained in Example 1 [for the preparation method, see step 1 of Example 1, preparation of immunogen A], of which the extracellular domain of monkey-derived 4-1BB protein (purchased from ACRO biosystems), the extracellular domain of mouse 4-1BB protein (purchased from sino biological) or other immune detection point proteins respectively were diluted with PBS to a final concentration of 1.0 μg/mL, then added with […] per well to 96-well ELISA plate. It was sealed with plastic film and incubated at 4° C. overnight. The next day, the plate was washed twice with the plate-washing solution [PBS containing 0.01% (v/v) Tween20] and blocking solution [PBS containing 0.01% (v/v) Tween 20 and 1% (v/v) BSA] was added and blocked at room temperature for 2 hours. The blocking solution was discarded and 100 μl of the purified 4-1BB antibody obtained in Example 2 was added per well. After incubated at 37° C. for 2 hours, the plate was washed 3 times with a plate-washing solution [PBS containing 0.01% (v/v) Tween20]. A secondary antibody (purchased from Sigma) labeled with HRP (horseradish peroxidase) was added, and after incubated at 37° C. for 2 hours, the plate was washed 3 times with a plate-washing solution [PBS containing 0.01% (v/v) Tween20]. 100 μl of TMB substrate was added per well. After incubated for 30 minutes at room temperature, 100 μl of stop buffer (1.0N HCl) was added per well. The A450 nm values were read using an ELISA plate reader (SpectraMax 384plus, Molecular Device).

Assay [2] concerns the target T1, monkey 4-1BB-his protein. Put plainly: ELISA, coated monkey 4-1BB-his; Ab 0.016 ug/ml. How it is done:
as §1
In general terms: In an ELISA, binding on a coated surface is turned into a signal by an enzyme label.

In assay [3] the target is T2, monkey 4-1BB on CHOK1 cells (monkey).
T2 construct: whole, on cells; also called CHOK1-c4-1BB
Put plainly: FACS, CHOK1-c4-1BB cells; Ab 0.016 ug/ml. The procedure, abridged:
(§2)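 CHOK1 stable lines expressing human or monkey 4-1BB were detached with enzyme-free Versene, blocked in 1% goat serum on ice for 30 min and resuspended at 2×10⁶ cells/mL in HBSS with 1% BSA. Purified antibody was bound on ice for 2 h, then cells were fixed in 4% paraformaldehyde and analysed by flow cytometry.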
(In general: In flow cytometry, cells or beads pass a laser one at a time.)

Assay [4] addresses T3, human 4-1BB, full length, on transfected cells (human, UniProt Q07011 24-255).
T3 construct: whole, on cells; also called CHOK1-h4-1BB
Put plainly: FACS, CHOK1-h4-1BB cells; Ab 0.08 ug/ml. A digest of the protocol:
as §2

The target in assay [5] is T4, hFc-tagged human 4-1BB extracellular domain protein (4-1BB-hFc) (human, UniProt Q07011 24-186, limits assumed).
T4 construct: also called immunogen A; 4-1BB^ECD-hFc; not shown: human IgG Fc fragment (hFc) of the pCpC vector
Description: ELISA, coated human 4-1BB-hFc; Ab 10 ug/ml. How it is done: as §1

Assay [6] deals with T4, hFc-tagged human 4-1BB extracellular …. Description: ELISA, coated human 4-1BB-hFc; Ab 0.016 ug/ml. Here is the method: as §1
In assay [7] the target is T3, human 4-1BB, full length, on …. Put plainly: FACS, CHOK1-h4-1BB cells; Ab 10 ug/ml. A digest of the protocol: as §2
The target of assay [8] is T2, monkey 4-1BB on CHOK1 cells. Description: FACS, CHOK1-c4-1BB cells; Ab 0.0032 ug/ml. The procedure, abridged:
as §2

The target of assay [9] is T4, hFc-tagged human 4-1BB extracellular …. Description: ELISA: human 4-1BB-hFc coated at 1.0 µg/mL, antibody titrated, HRP secondary antibody, OD450. How it is done: as §1
For assay [10], the target named is T2, monkey 4-1BB on CHOK1 cells. Description: FACS, CHOK1-c4-1BB cells; Ab 0.4 ug/ml. The procedure, abridged: as §2
Assay [11] deals with T4, hFc-tagged human 4-1BB extracellular …. Description: ELISA, coated human 4-1BB-hFc; Ab 0.0006 ug/ml. Here is the method:
as §1

For assay [12], the target named is T3, human 4-1BB, full length, on …. Put plainly: FACS, CHOK1-h4-1BB cells; Ab 0.00064 ug/ml. A digest of the protocol:
as §2

For assay [13], the target named is T4, hFc-tagged human 4-1BB extracellular …. Put plainly: ELISA, coated human 4-1BB-hFc; Ab 0.4 ug/ml. How it is done:
as §1

For assay [14], the target named is T2, monkey 4-1BB on CHOK1 cells. Put plainly: FACS, CHOK1-c4-1BB cells; Ab 0.08 ug/ml. A digest of the protocol:
as §2

The target of assay [15] is T1, monkey 4-1BB-his protein. Put plainly: ELISA, coated monkey 4-1BB-his; Ab 0.0032 ug/ml. How it is done: as §1

T3 sequence (Q07011 24-255): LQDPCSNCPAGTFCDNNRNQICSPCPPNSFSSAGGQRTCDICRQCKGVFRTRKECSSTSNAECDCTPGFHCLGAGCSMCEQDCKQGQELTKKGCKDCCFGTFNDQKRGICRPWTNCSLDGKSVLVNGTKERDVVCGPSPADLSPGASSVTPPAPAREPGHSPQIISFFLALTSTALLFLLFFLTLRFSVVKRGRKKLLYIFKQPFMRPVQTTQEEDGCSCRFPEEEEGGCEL

B1: 263A11E3 (antibody, V domains shown)
VH: QVQLQESGPGLVKPSETLSLTCAVSGYSISSGYYWGWIRQPPGKGLEWIGSIYHSGSTSYNPSLRSRVTISVDTSKNQFSLKLSSVTAADTAVYYCARDAGGFDYWGQGTLVTVSS
VL: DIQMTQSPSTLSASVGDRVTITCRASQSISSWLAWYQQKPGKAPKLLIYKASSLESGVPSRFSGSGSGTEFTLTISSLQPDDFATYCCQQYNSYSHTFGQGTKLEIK
For B1, the OD450 nm came to 0.08 OD450 nm with monkey 4-1BB-his protein [1]; 0.07 OD450 nm in the assay with monkey 4-1BB-his protein [2]; 2.75 OD450 nm in [5]; 1.23 OD450 nm in [6]; 0.1 OD450 nm in assay [11]; 2.75 OD450 nm in assay [13]. In addition, the OD450 nm with monkey 4-1BB-his protein [15] came to 0.07 OD450 nm. The average fluorescence intensity in assay [3] came out at 8 MFI; in assay [4] it was 356 MFI; in [7], 1780 MFI; in [8], 3.8 MFI; in [10] it was 56.5 MFI; in assay [12], 8 MFI. This molecule displayed an average fluorescence intensity in assay [14] of 21.1 MFI. In [9], the “EC50 (read off the curve)” value is approximately 0.02 µg/mL.

B2: 258F5A8 (antibody, V domains shown)
VH: QVQLVESGGGVVQPGRSLRLSCAASGFTFSSYGMHWVRQAPGKGLEWVAVIWYDGSNKYYADSVKGRFNISRDNSKNTLYLQMNSLRAEDTAVYYCARGPYLYSSGWYDYYYYGMDVWGQGTTVTVSS
VL: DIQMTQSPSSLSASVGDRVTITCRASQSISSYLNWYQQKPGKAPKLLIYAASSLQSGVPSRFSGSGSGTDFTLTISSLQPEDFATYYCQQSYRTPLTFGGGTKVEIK
In the case of B2, the OD450 nm with monkey 4-1BB-his protein [1] came out at 0.55 OD450 nm; with monkey 4-1BB-his protein [2] it was 0.13 OD450 nm; in assay [5], 2.68 OD450 nm; in [6], 1.06 OD450 nm; in [11], 0.09 OD450 nm; in [13] it was 2.69 OD450 nm. This molecule yielded an OD450 nm with monkey 4-1BB-his protein [15] of 0.08 OD450 nm. The average fluorescence intensity in assay [3] stood at 9.9 MFI; in [4], 252 MFI; in [7] it was 835 MFI; in assay [8], 4.5 MFI; in [10] it was 71.4 MFI; in assay [12], 7 MFI. Moreover, in assay [14], the average fluorescence intensity is 26.6 MFI. In addition, the “EC50 (read off the curve)” value in assay [9] is approximately 0.02 µg/mL.

B3: 259G10E11 (antibody, V domains shown)
VH: QVQLVESGGGVVQPGRSLRLSCAASGFTFSSYGMHWVRQAPGKGLEWVAVIWYDGSNKYYADSVKGRFTISRDNSKNTLYLQMNSLRAEDTAVYYCARGPYLYSSGWYDYYYYGMDVWGQGTTVTVSS
VL: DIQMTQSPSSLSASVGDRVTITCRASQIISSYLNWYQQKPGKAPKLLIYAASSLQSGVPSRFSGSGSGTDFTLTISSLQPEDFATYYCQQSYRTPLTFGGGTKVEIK
In the case of B3, the OD450 nm in the assay with monkey 4-1BB-his protein [1] was 0.46 OD450 nm; with monkey 4-1BB-his protein [2] it was 0.12 OD450 nm; in assay [5] it was 2.8 OD450 nm; in assay [6], 1.29 OD450 nm; in [11], 0.11 OD450 nm; in [13] it was 2.79 OD450 nm. Besides, the OD450 nm in the assay with monkey 4-1BB-his protein [15] is 0.07 OD450 nm. Further, the average fluorescence intensity in [3] is 9.3 MFI; in assay [4], 252 MFI; in assay [7] it was 827 MFI; in [8], 4.3 MFI; in [10] it was 64.3 MFI; in [12], 7.1 MFI. This molecule also showed an average fluorescence intensity in assay [14] of 25.4 MFI. Further, in assay [9], the “EC50 (read off the curve)” value was approximately 0.02 µg/mL.
